# Test results as given in publication PMC9051087.
# “And” between values parts separate entries of the source, which are not always exact repeats. Equal values may be shown once.
# Key:
# [1] = target: Thermococcus celer HARP (Thermococcus celer); experiment: SEC; TcHARP at higher salt (200–500 mM); Superdex 200 Increase 10/300 GL, 20 mM Tris-HCl pH 8.0
# [2] = target: PbHARP A118E/A121E mutant (Planctomycetes bacterium GWF2_40_8); experiment: SEC; PbHARP wild type and mutants; Superdex 200 Increase 10/300 GL, 20 mM Tris-HCl pH 8.0, 300–500 mM salt for the wild type (it precipitates at lower salt); 300 ug protein, 0.4 mL/min
# [3] = target: Planctomycetes bacterium HARP (homolog of Aquifex RNase P) (Planctomycetes bacterium GWF2_40_8); experiment: as above
# [4] = target: Planctomycetes bacterium HARP (homolog of Aquifex RNase P) (Planctomycetes bacterium GWF2_40_8); experiment: cross-linking; BS3 (0, 0.01, 0.03 mM), 25 °C 1 h, 37.6 uM PbHARP without or with 45.1 uM His-7bp pre-tRNA and 10 mM CaCl2; 20 mM HEPES pH 7.9, 500 mM NaCl; SDS-PAGE
substance,measurement,setting,value
Thermococcus celer HARP (enzyme),stoichiometry N,[1],2
PbHARP A118E/A121E mutant (enzyme),stoichiometry N,[2],2
Planctomycetes bacterium HARP (homolog of Aquifex RNase P) (enzyme),stoichiometry N,[3],2
same,stoichiometry N,[4],2 and 4
